Numbering of substitutions follows the chain as printed. Each block holds one binder with its values, some of them ahead of it.
Tests used:
AUC = biological target: the molecule itself; assay: AUC
[1] = biological target: T1, EcoP15I Res subunit, C-terminally His6-tagged (from pQEP15) (UniProt Q5ZND2 1-970); assay: second-derivative UV absorption spectroscopy
T1 sequence (looked up): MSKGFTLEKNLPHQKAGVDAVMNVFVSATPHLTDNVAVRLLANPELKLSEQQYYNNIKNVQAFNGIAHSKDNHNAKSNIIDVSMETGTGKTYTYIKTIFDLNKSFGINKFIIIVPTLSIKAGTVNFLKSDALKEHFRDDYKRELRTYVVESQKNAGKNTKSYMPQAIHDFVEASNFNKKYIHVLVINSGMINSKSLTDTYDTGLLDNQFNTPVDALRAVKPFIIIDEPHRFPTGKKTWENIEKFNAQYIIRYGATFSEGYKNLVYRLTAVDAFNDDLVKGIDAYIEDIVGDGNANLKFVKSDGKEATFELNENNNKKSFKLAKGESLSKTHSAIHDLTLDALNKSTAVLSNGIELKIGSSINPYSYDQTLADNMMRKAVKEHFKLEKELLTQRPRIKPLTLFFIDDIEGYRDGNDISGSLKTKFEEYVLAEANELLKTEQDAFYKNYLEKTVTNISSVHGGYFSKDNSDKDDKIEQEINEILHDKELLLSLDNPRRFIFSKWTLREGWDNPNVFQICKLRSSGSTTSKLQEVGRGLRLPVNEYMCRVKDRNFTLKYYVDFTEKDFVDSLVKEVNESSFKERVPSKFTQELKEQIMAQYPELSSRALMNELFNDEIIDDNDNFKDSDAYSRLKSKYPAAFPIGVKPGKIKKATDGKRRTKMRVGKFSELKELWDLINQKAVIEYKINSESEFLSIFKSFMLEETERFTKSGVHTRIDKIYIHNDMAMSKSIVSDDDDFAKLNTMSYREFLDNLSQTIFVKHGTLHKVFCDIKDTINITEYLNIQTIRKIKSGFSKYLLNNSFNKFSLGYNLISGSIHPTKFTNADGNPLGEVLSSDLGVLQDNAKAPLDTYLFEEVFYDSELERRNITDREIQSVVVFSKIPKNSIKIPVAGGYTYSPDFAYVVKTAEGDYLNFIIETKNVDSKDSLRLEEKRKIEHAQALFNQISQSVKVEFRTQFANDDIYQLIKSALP

[2] = biological target: T1, EcoP15I Res subunit, C-terminally …; assay: SEC
[3] = biological target: T2, EcoP15I Res subunit (earlier preparations from pACYC177, no affinity tag) (UniProt Q5ZND2 1-970); assay: densitometry of SDS-PAGE of the purified enzyme
T2 sequence (looked up): T1 sequence (looked up)

[4] = biological target: T3, EcoP15I Res strongest DNA-binding region (array peptides) (UniProt Q5ZND2 637-670); assay: peptide array
T3 chain: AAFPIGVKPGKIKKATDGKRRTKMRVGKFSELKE

[5] = biological target: T4, EcoP15I Res peptide 126-145 (spot B6) (UniProt Q5ZND2 126-145); assay: peptide array
T4 chain: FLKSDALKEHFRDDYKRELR

[6] = biological target: T5, EcoP15I Res peptide 531-550 (spot F7) (UniProt Q5ZND2 531-550); assay: peptide array
T5 chain: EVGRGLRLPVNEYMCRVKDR

[7] = biological target: EcoP15I Mod subunit;EcoP15I Res subunit (Escherichia coli?;Escherichia coli?, UniProt P12364;Q5ZND2 1-644;1-970, |); assay: EMSA
[8] = biological target: T6, EcoP15I Res translocase (Tr) domain (UniProt Q5ZND2 1-705); assay: EMSA
T6 sequence: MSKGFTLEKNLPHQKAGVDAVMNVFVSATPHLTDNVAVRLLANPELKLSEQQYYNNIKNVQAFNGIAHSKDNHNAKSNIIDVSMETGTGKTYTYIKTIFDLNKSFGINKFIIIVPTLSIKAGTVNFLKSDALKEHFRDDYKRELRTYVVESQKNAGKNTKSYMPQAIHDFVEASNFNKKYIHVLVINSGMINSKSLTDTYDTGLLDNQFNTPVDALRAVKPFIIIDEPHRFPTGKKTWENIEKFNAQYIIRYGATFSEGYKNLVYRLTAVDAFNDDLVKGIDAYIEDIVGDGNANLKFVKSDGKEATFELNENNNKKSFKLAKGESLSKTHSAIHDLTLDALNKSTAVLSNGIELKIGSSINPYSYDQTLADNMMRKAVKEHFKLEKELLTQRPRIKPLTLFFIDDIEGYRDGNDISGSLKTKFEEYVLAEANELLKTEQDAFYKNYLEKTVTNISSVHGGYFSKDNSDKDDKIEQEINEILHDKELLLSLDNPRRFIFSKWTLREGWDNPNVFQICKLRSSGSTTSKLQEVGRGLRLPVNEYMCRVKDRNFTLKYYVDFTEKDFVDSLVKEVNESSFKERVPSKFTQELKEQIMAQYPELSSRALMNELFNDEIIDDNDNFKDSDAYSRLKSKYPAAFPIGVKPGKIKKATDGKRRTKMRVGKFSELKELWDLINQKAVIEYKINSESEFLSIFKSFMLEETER

[9] = biological target: T7, EcoP15I Mod subunit;EcoP15I Res translocase (Tr) domain (Escherichia coli?;Escherichia coli?, UniProt P12364;Q5ZND2 1-644;1-705, |); assay: EMSA
T7 sequence 1: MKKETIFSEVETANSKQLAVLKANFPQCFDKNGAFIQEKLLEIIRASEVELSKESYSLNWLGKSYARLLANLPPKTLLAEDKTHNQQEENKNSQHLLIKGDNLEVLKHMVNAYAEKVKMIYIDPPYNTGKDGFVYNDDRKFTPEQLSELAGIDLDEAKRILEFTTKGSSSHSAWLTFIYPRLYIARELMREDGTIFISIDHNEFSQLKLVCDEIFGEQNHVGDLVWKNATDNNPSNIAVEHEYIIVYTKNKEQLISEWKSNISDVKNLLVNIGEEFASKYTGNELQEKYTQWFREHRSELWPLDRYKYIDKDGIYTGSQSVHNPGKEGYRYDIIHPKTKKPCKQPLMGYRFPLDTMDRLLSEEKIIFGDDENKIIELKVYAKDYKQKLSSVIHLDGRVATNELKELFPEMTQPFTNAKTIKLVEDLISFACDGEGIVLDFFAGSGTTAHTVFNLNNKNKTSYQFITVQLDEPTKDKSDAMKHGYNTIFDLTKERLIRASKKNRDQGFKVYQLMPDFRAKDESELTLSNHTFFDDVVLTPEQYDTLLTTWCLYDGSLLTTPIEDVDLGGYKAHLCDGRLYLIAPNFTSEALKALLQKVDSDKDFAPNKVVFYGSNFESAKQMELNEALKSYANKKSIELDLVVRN
T7 sequence 2: T6 sequence

B1: EcoP15I MTase (Mod subunit, C-terminally His-tagged) (enzyme, UniProt P12364 1-644, looked up)
chain: T7 sequence 1
stoichiometry N (AUC): 2

stoichiometry N [1]: 2 Mod:Res
Mod:Res ratio in SEC peak 1 [2]: ~1 Mod:Res
stoichiometry N [2]: 1.8 Mod:Res
B2: EcoP15I Mod subunit (untagged, from pQEP15) (natural protein, UniProt P12364 1-644, looked up)
chain: T7 sequence 1

stoichiometry N [3]: 1.8 ± 0.15 Mod:Res
B3: EcoP15I Mod subunit (earlier preparations from pACYC177, no affinity tag) (natural protein, UniProt P12364 1-644, looked up)
chain: T7 sequence 1

B4: KW30-1/KW30-1c, specific dsDNA (dsDNA)
DNA 1: CGTAATCGTACCCAGCAGATATCGGTACCG
DNA 2: CGGTACCGATATCTGCTGGGTACGATTACG
binding result [4]: binds
binding result [5]: no binding
binding result [6]: no binding

B5: SR60-1/SR60-1c, dsDNA one site (dsDNA)
DNA 1: GGTCGACGAACCGTAATCGTACCCAGCAGATATCGGTACCGTTCGGTAATATTCCGACGG
DNA 2: CCGTCGGAATATTACCGAACGGTACCGATATCTGCTGGGTACGATTACGGTTCGTCGACC
Kd [7]: 16 nM
Kd [8]: 128 nM
Kd [9]: 121 nM

B6: SR60-0/SR60-0c, dsDNA no site (dsDNA)
DNA 1: B5 DNA 1 with C24G, G26A, A28C
DNA 2: B5 DNA 2 with T33G, C35T, G37C
Kd [7]: 37 nM
Kd [8]: 93 nM
Kd [9]: 160 nM

B7: SR60-1, ssDNA (ssDNA)
DNA: B5 DNA 1
Kd [7]: 267 nM
Kd [8]: 268 nM
Kd [9]: 346 nM
